According to publication PMC5794803, “IGFBPL1 Regulates Axon Growth through IGF-1-mediated Signaling Cascades” (Scientific Reports, 2018):

Biological target: recombinant mouse IGF-1 (insulin-like growth factor 1) (mouse, UniProt P05017 49-118)
Test: cell-based or functional assay

Sequence of recombinant mouse IGF-1 (insulin-like growth factor 1) (P05017 49-118): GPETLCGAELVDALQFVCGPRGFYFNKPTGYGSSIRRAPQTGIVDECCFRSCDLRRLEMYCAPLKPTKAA

B1: recombinant mouse IGFBPL1 (insulin-like growth factor binding protein-like 1) (natural protein, UniProt Q80W15 18-270, looked up)
chain: LGLRDAGRRHPECSPCQQDRCPAPSPCPAPWISARDECGCCARCLGAEGASCGGPVGSRCGPGLVCASRASGTAPEGTGLCVCAQRGAVCGSDGRSYSSICALRLRARHAPRAHHGHLHKARDGPCEFAPVVLMPPRDIHNVTGTQVFLSCEVKAVPTPVITWKKVKHSPEGTEGLEELPGDHVNIAVQVRGGPSDHETTSWILINPLRKEDEGVYHCHAANAIGEAQSHGTVTVLDLNRYKSLYSSVPGDLL
- PI3K phosphorylation (Western blot) in P10 RGCs after co-administration of IGF-1 and IGFBPL1, compared to the control group: 6 fold
- mTOR phosphorylation (Western blot) in P10 RGCs after co-administration of IGF-1 and IGFBPL1, compared to the control group: 3 fold
